Columns and labels:
[1] = molecular target: T1, NeqSSB-like protein (Nanoarchaeum equitans Kin4-M, UniProt Q74MP9 2-243); test: EMSA; 10 pmol DNA; EMSA: 20 mM Tris-HCl pH 7.5, 100 mM NaCl, 1 mM EDTA, 25 C, 10 min; fluorescence: 20 mM Tris-HCl pH 7.5, 1 mM EDTA, 2/100/500 mM NaCl, 25 C; SPR: 10 mM Hepes pH; conditions: protein: recombinant; tags: N-terminal His tag with TEV site, removed by TEV; label: 5' fluorescein
T1 sequence: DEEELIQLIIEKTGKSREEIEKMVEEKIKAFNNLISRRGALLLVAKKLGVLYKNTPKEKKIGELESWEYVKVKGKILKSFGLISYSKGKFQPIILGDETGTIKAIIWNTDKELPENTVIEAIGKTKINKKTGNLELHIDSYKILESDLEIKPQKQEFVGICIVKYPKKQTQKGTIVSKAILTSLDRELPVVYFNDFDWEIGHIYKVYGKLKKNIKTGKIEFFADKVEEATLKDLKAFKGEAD

[2] = molecular target: EcoSSB (Escherichia coli, UniProt P0AGE0 1-178); test: SPR; kon 3.45e4 1/Ms; koff 1.85e-4 1/s; EMSA: 20 mM Tris-HCl pH 7.5, 100 mM NaCl, 1 mM EDTA, 25 C, 10 min; fluorescence: 20 mM Tris-HCl pH 7.5, 1 mM EDTA, 2/100/500 mM NaCl, 25 C; SPR: 10 mM Hepes pH; conditions: protein: recombinant; chain copies: 4; label: 3' biotin
Chain of EcoSSB (P0AGE0 whole entry): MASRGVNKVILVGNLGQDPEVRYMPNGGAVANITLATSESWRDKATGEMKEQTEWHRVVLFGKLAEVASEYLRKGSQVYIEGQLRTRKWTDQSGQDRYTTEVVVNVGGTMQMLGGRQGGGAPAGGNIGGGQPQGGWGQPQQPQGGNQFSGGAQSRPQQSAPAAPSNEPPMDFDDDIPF

[3] = molecular target: T1, NeqSSB-like protein; test: SPR; kon 7.91e3 1/Ms; koff 2.39e-2 1/s; EMSA: 20 mM Tris-HCl pH 7.5, 100 mM NaCl, 1 mM EDTA, 25 C, 10 min; fluorescence: 20 mM Tris-HCl pH 7.5, 1 mM EDTA, 2/100/500 mM NaCl, 25 C; SPR: 10 mM Hepes pH; conditions: protein: recombinant; tags: N-terminal His tag with TEV site, removed by TEV; label: 3' biotin
[4] = molecular target: T1, NeqSSB-like protein; test: SPR; kon 8.30e3 1/Ms; koff 4.89e-2 1/s; EMSA: 20 mM Tris-HCl pH 7.5, 100 mM NaCl, 1 mM EDTA, 25 C, 10 min; fluorescence: 20 mM Tris-HCl pH 7.5, 1 mM EDTA, 2/100/500 mM NaCl, 25 C; SPR: 10 mM Hepes pH; conditions: protein: recombinant; tags: N-terminal His tag with TEV site, removed by TEV; label: 3' biotin on strand 1; blunt
[5] = molecular target: T1, NeqSSB-like protein; test: EMSA; 10 pmol DNA; smeary shift; EMSA: 20 mM Tris-HCl pH 7.5, 100 mM NaCl, 1 mM EDTA, 25 C, 10 min; fluorescence: 20 mM Tris-HCl pH 7.5, 1 mM EDTA, 2/100/500 mM NaCl, 25 C; SPR: 10 mM Hepes pH; conditions: protein: recombinant; tags: N-terminal His tag with TEV site, removed by TEV; label: 5' fluorescein
[6] = molecular target: T1, NeqSSB-like protein; test: competition EMSA; mixed with 100 bp dsDNA; ssDNA bound preferentially at low protein; EMSA: 20 mM Tris-HCl pH 7.5, 100 mM NaCl, 1 mM EDTA, 25 C, 10 min; fluorescence: 20 mM Tris-HCl pH 7.5, 1 mM EDTA, 2/100/500 mM NaCl, 25 C; SPR: 10 mM Hepes pH; conditions: protein: recombinant; tags: N-terminal His tag with TEV site, removed by TEV; label: 5' fluorescein

B1: (dT)120 (ssDNA)
DNA: TTTTTTTTTTTTTTTTTTTTTTTTTTTTTTTTTTTTTTTTTTTTTTTTTTTTTTTTTTTTTTTTTTTTTTTTTTTTTTTTTTTTTTTTTTTTTTTTTTTTTTTTTTTTTTTTTTTTTTTT
B1: binds [1].

B2: ssDNA 60-mer (ssDNA)
DNA: AATTCTGGGTGTGTGGGTGTGTGGGTGTGTGGGTGTGGTCAAGTTGACTACGTATACATC
Binder B2 has a Kd [2] of 5.36 nM and a Kd [3] of 2660 nM.

B3: dsDNA 60-mer (dsDNA)
DNA 1: B2 DNA
DNA 2: GATGTATACGTAGTCAACTTGACCACACCCACACACCCACACACCCACACACCCAGAATT
B3 showed a Kd [4] of 5260 nM.

B4: (dT)35 (ssDNA)
DNA: TTTTTTTTTTTTTTTTTTTTTTTTTTTTTTTTTTT
B4: binds [5].

B5: (dT)76 (ssDNA)
DNA: TTTTTTTTTTTTTTTTTTTTTTTTTTTTTTTTTTTTTTTTTTTTTTTTTTTTTTTTTTTTTTTTTTTTTTTTTTTT
B5: binds [6].
